How the values were obtained:
[1] = target: LRP6 on HEK293/HEK293T reporter cells (UniProt O75581 20-1613, limits assumed); assay: cell-based or functional assay
[2] = target: T1, human LRP6 ECD, Fc-tagged (human, UniProt O75581 20-1370); assay: BLI kinetics, human LRP6 ECD
T1 construct: extracellular domain; Bought; also called LRP co-receptor; not shown: Fc tag of the purchased fusion
T1 sequence (looked up): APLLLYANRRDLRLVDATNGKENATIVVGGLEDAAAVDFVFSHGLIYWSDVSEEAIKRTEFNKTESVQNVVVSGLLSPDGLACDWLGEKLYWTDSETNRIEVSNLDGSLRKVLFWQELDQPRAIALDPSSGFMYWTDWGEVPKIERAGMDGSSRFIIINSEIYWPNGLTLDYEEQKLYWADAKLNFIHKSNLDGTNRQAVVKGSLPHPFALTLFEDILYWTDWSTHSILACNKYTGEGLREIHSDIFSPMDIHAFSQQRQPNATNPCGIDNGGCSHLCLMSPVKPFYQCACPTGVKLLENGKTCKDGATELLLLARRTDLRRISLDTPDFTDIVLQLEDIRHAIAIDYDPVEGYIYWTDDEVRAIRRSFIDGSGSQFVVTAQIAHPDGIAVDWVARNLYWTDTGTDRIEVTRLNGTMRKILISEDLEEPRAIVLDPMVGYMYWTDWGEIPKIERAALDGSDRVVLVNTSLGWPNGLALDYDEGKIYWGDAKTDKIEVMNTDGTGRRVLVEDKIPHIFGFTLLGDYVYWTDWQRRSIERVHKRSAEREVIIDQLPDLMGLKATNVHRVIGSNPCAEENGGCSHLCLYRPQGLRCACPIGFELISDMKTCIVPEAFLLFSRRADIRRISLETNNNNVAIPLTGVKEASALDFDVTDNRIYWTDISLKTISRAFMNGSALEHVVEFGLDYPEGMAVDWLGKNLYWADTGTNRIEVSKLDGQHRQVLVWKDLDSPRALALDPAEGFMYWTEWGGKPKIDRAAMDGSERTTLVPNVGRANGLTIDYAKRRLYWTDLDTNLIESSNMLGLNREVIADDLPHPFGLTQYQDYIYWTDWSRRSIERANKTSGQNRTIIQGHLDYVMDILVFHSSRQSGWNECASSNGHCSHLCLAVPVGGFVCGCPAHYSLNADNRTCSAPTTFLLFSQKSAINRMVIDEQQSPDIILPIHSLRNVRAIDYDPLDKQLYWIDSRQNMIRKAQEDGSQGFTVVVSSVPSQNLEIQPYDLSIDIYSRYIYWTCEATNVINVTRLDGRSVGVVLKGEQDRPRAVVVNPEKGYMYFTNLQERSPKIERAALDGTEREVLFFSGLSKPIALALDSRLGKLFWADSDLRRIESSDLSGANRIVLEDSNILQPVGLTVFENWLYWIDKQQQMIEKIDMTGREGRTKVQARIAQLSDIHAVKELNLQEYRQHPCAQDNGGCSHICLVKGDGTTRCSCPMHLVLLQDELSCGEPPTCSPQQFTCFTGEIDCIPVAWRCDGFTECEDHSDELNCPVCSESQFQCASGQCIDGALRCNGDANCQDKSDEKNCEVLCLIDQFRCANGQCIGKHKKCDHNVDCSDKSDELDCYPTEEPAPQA

FZD1 CRD, Fc-tagged [3] = target: T2, FZD1 CRD, Fc-tagged (human, UniProt Q9UP38 70-250); assay: kinetic table (called BLI in paragraph 170)
T2 construct: domain: CRD; Bought; not shown: Fc tag of the purchased fusion

FZD2 CRD, Fc-tagged [4] = target: T3, FZD2 CRD, Fc-tagged (human, UniProt Q14332 24-190); assay: kinetic table (called BLI in paragraph 170)
T3 construct: domain: CRD; Bought; not shown: Fc tag of the purchased fusion

FZD7 CRD, Fc-tagged [5] = target: T4, FZD7 CRD, Fc-tagged (human, UniProt O75084 33-185); assay: kinetic table (called BLI in paragraph 170)
FcRn = FcRn (UniProt P55899 24-297; P61769 21-119); assay: steady-state BLI at pH 6.0, FcRn immobilised, serial dilutions (0.1-225 nM) of the FLAg in solution
Method: (§1) Coated sensors were equilibrated in assay buffer (PBS, 1% BSA, 0.05% Tween20) and transferred into Fc receptor solutions. Association was monitored for 600 seconds, the sensors were transferred to assay buffer, and dissociation was monitored for 600 seconds. CD64 and all other Fc receptors were assayed at 50 nM or 300 nM, respectively, at pH 7.4, unless as indicated. Shake speed was 1000 rpm and temperature was 25° C. End-point response values were taken at the end of the association phase and were normalized to isotype controls. […] The association and disassociation times were 600 or 1200 seconds, respectively.

FZD1 CRD, Fc-tagged [6] = target: T2, FZD1 CRD, Fc-tagged; assay: kinetic table (called BLI in paragraph 35); quantity name and unit not printed in the table: KD in M follows from FIG. 12A, same values in nM
FZD2 CRD, Fc-tagged [7] = target: T3, FZD2 CRD, Fc-tagged; assay: as above
FZD7 CRD, Fc-tagged [8] = target: T4, FZD7 CRD, Fc-tagged; assay: as above
FZD1 CRD, Fc-tagged [9] = target: T2, FZD1 CRD, Fc-tagged; assay: kinetic table (called BLI in paragraph 170); the row labels kd and ka are interchanged on the sheet: the KD row equals the 10^-3 row divided by the 10^5 row
[10] = target: T1, human LRP6 ECD, Fc-tagged; assay: as above
C1q = target: T5, C1q (UniProt P02745 23-245; P02746 28-253; P02747 29-245); assay: BLI end point: IgG1, FLAg or Fab immobilised on the sensor, receptor in solution (300 nM; CD64 50 nM), signal normalised to the isotype control
T5 construct: also called complement (C1q); Clq
Method: as §1

CD64 = target: T6, CD64 (UniProt P12314 16-288); assay: as above
T6 construct: also called monocyte and macrophage marker CD64
T6 sequence (P12314 16-288 limits assumed): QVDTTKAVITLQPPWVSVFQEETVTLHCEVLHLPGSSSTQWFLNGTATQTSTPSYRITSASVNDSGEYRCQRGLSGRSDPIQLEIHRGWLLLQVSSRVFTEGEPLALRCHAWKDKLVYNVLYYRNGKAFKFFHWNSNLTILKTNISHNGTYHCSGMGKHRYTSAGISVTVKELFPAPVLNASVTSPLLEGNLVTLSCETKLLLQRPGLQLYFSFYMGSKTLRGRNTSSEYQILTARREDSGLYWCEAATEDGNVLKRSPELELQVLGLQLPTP
Method: as §1

T2 sequence (Q9UP38 70-250): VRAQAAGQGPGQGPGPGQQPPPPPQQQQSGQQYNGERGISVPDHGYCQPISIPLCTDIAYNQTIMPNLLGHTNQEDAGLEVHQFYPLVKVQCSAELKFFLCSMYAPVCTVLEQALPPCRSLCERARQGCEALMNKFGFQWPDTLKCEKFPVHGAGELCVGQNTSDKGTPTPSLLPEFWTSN
T5 sequence (P02745 23-245 limits assumed, chain 1 of 3): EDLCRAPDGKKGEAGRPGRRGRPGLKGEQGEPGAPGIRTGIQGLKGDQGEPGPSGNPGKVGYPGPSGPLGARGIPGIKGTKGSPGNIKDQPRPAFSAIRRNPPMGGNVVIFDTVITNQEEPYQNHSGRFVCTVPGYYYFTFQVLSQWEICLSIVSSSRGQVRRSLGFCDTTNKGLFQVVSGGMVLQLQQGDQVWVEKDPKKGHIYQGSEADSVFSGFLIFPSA
T5 sequence (P02746 28-253 limits assumed, chain 2 of 3): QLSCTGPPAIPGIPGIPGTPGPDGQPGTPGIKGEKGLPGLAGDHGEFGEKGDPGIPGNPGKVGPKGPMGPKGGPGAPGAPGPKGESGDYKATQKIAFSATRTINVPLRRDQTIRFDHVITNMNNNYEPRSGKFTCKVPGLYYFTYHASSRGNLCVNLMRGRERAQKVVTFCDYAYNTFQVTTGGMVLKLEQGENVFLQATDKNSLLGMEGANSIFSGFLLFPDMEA
T5 sequence (P02747 29-245 limits assumed, chain 3 of 3): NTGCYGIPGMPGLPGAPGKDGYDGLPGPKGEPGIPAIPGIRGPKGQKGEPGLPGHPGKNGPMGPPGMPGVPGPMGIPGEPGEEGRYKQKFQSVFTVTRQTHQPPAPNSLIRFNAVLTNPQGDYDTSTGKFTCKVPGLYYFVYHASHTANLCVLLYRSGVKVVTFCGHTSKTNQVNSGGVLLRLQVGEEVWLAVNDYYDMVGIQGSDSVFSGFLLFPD

EC50 of activation of a LEF/TCF reporter gene in HEK293T cells [1]: ~5 nM | ß-catenin luciferase reporter assay in HEK293 cells, activation over background [1]: ~400 fold over background | Kd [2]: 12 nM | Kd (FZD1 CRD, Fc-tagged [3]): < 0.01 nM | Kd (FZD2 CRD, Fc-tagged [4]): 0.04 nM | Kd (FZD7 CRD, Fc-tagged [5]): 0.06 nM | EC50 (read off the curve) (FcRn): ~10 nM | Kd (FZD1 CRD, Fc-tagged [6]): < 0.01 nM | Kd (FZD2 CRD, Fc-tagged [7]): 0.039 nM | Kd (FZD7 CRD, Fc-tagged [8]): 0.057 nM | koff (FZD1 CRD, Fc-tagged [9]): < 1e-06 s⁻¹ | kon (FZD1 CRD, Fc-tagged [9]): 395000 M⁻¹ s⁻¹ | koff [10]: 0.00181 s⁻¹ | kon [10]: 152000 M⁻¹ s⁻¹ | binding result (C1q): binds | binding result (CD64): binds
B1: F^P+P-L6^1+3 (5019-K/H-2539-2542) (bispecific antibody)
chain 1: EVQLVESGGGLVQPGGSLRLSCAASGFNIGSSSIHWVRQAPGKGLEWVASIYSAFASTSYADSVKGRFTISADTSKNTAYLQMNSLRAEDTAVYYCARYHFPFGFALDYWGQGTLVTVSSGGGGSDIQMTQSPSSLSASVGDRVTITCRASQSVSSAVAWYQQKPGKAPKLLIYSASSLYSGVPSRFSGSRSGTDFTLTISSLQPEDFATYYCQQGVYLFTFGQGTKVEIKLEDKTHTKVEPKTSDKTHTCPPCPAPELLGGPSVFLFPPKPKDTLMISRTPEVTCVVVDVSHEDPEVKFNWYVDGVEVHNAKTKPREEQYNSTYRVVSVLTVLHQDWLNGKEYKCKVSNKALPAPIEKTISKAKGQPREPMVFDLPPSREEMTKNQVSLWCMVKGFYPSDIAVEWESNGQPENNYKTTPPVLDSDGSFFLYSKLTVDKSRWQQGNVFSCSVMHEALHNHYTQKSLSLSPGKSGSETPGTSESATPESGGGEVQLVESGGGLVQPGGSLRLSCAASGFNISYSSIHWVRQAPGKGLEWVAYISSYYGYTYYADSVKGRFTISADTSKNTAYLQMNSLRAEDTAVYYCARAHYFPWAGAMDYWGQGTLVTVSSGGGGSDIQMTQSPSSLSASVGDRVTITCRASQSVSSAVAWYQQKPGKAPKLLIYSASSLYSGVPSRFSGSRSGTDFTLTISSLQPEDFATYYCQQYYWPITFGQGTKVEIK
chain 2: EVQLVESGGGLVQPGGSLRLSCAASGFNIGSSSIHWVRQAPGKGLEWVASIYSAFASTSYADSVKGRFTISADTSKNTAYLQMNSLRAEDTAVYYCARYHFPFGFALDYWGQGTLVTVSSGGGGSDIQMTQSPSSLSASVGDRVTITCRASQSVSSAVAWYQQKPGKAPKLLIYSASSLYSGVPSRFSGSRSGTDFTLTISSLQPEDFATYYCQQGVYLFTFGQGTKVEIKLEDKTHTKVEPKSSDKTHNCPPCPAPELLGGPSVFLFPPKPKDTLMISRTPEVTCVVVDVSHEDPEVKFNWYVDGVEVHNAKTKPREEQYNSTYRVVSVLTVLHQDWLNGKEYKCKVSNKALPAPIEKTISKAKGQPREPQVYTLPPIRELMTSNQVSLSCAVKGFYPSDIAVEWESNGQPENNYKTTPPVLDSDGSFFLVSKLTVDKSRWQQGNVFSCSVMHEALHNHYTQKSLSLSPGKSGSETPGTSESATPESGGGEVQLVESGGGLVQPGGSLRLSCAASGFNISSYYIHWVRQAPGKGLEWVASIYSSYGYTSYADSVKGRFTISADTSKNTAYLQMNSLRAEDTAVYYCARTVRGSKKPYFSGWAMDYWGQGTLVTVSSGGGGSDIQMTQSPSSLSASVGDRVTITCRASQSVSSAVAWYQQKPGKAPKLLIYSASSLYSGVPSRFSGSRSGTDFTLTISSLQPEDFATYYCQQYSWGPFTFGQGTKVEIK

From patent publication US20210032352A1 (ANTERA THERAPEUTICS, published 2021)
